Columns and labels:
[1] = biological target: Full length His-tagged E. coli SPase (E. coli) (UniProt P00803); assay: fluorescence binding titration; compound conc. 3.E+01 (unit inferred)
[2] = biological target: Full length His-tagged S. aureus SPase (S. aureus) (UniProt P0A070); assay: fluorescence binding titration; compound conc. 62.5 (unit inferred)
[3] = biological target: Full length His-tagged S. aureus SPase (S. aureus) (UniProt P0A070); assay: fluorescence binding titration; compound conc. 1000 (unit inferred)
[4] = biological target: Full length His-tagged E. coli SPase (E. coli) (UniProt P00803); assay: fluorescence binding titration; compound conc. 3.E+02 (unit inferred)
[5] = biological target: Full length His-tagged S. aureus SPase (S. aureus) (UniProt P0A070); assay: fluorescence binding titration; compound conc. 15.625 (unit inferred)
[6] = biological target: Full length His-tagged S. aureus SPase (S. aureus) (UniProt P0A070); assay: fluorescence binding titration; compound conc. 250 (unit inferred)
[7] = biological target: Full length His-tagged E. coli SPase (E. coli) (UniProt P00803); assay: fluorescence binding titration; compound conc. 8.E+00 (unit inferred)
[8] = biological target: Full length His-tagged E. coli SPase (E. coli) (UniProt P00803); assay: fluorescence binding titration; compound conc. 1.E+02 (unit inferred)
[9] = biological target: Full length His-tagged S. aureus SPase (S. aureus) (UniProt P0A070); assay: fluorescence binding titration; compound conc. 500 (unit inferred)
[10] = biological target: Full length His-tagged E. coli SPase (E. coli) (UniProt P00803); assay: fluorescence binding titration; compound conc. 0.E+00 (unit inferred)
[11] = biological target: Full length His-tagged S. aureus SPase (S. aureus) (UniProt P0A070); assay: fluorescence binding titration; compound conc. 2000 (unit inferred)
[12] = biological target: Full length His-tagged S. aureus SPase (S. aureus) (UniProt P0A070); assay: fluorescence binding titration; compound conc. 8000 (unit inferred)
[13] = biological target: Full length His-tagged E. coli SPase (E. coli) (UniProt P00803); assay: fluorescence binding titration; compound conc. 6.E+01 (unit inferred)
[14] = biological target: Full length His-tagged S. aureus SPase (S. aureus) (UniProt P0A070); assay: fluorescence binding titration; compound conc. 31.25 (unit inferred)
[15] = biological target: Full length His-tagged S. aureus SPase (S. aureus) (UniProt P0A070); assay: fluorescence binding titration; compound conc. 125 (unit inferred)
[16] = biological target: Full length His-tagged E. coli SPase (E. coli) (UniProt P00803); assay: fluorescence binding titration; compound conc. 2.E+03 (unit inferred)
[17] = biological target: Full length His-tagged E. coli SPase (E. coli) (UniProt P00803); assay: fluorescence binding titration; compound conc. 4.E+03 (unit inferred)
[18] = biological target: Full length His-tagged S. aureus SPase (S. aureus) (UniProt P0A070); assay: fluorescence binding titration; compound conc. 4000 (unit inferred)
[19] = biological target: Full length His-tagged E. coli SPase (E. coli) (UniProt P00803); assay: fluorescence binding titration; compound conc. 1.E+03 (unit inferred)
[20] = biological target: Full length His-tagged E. coli SPase (E. coli) (UniProt P00803); assay: fluorescence binding titration; compound conc. 5.E+02 (unit inferred)
[21] = biological target: Full length His-tagged E. coli SPase (E. coli) (UniProt P00803); assay: fluorescence binding titration; compound conc. 2.E+01 (unit inferred)
[22] = biological target: T1, decanyol-LTPTAY^NO2 A ASKK^abzDD (SEQ ID NO: 2)
T1 chain: LTPTAYAASKKDD

[23] = biological target: T2, decanoyl-LSSPA Y^NO2 A ADK^abzPD (SEQ ID NO: 1)
T2 chain: LSSPAYAADKPD

Sequence of Full length His-tagged E. coli SPase (E. coli) (P00803 whole entry): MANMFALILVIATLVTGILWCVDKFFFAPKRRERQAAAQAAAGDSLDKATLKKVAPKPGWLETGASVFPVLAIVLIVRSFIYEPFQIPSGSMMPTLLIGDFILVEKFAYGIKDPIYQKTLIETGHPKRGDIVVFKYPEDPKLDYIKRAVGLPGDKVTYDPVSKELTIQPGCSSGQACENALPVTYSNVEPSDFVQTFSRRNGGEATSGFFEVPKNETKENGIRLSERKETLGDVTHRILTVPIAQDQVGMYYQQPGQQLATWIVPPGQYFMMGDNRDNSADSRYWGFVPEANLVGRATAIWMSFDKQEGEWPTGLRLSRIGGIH

Compound 1 (arylomycin C16) (peptide)
% Comp calc [1]: 31% | % Comp obs [1]: 32% | % Comp calc [2]: 7.4% | % Comp obs [2]: 6.4% | % Comp calc [3]: 61.1% | % Comp obs [3]: 59.1% | % Comp calc [4]: 85% | % Comp obs [4]: 81% | % Comp calc [5]: 1.9% | % Comp obs [5]: 1.7% | % Comp calc [6]: 25.4% | % Comp obs [6]: 25.6% | % Comp calc [7]: 9% | % Comp obs [7]: 10% | % Comp calc [8]: 71% | % Comp obs [8]: 69% | % Comp calc [9]: 42% | % Comp obs [9]: 38.6% | % Comp calc [10]: 0% | % Comp obs [10]: -1% | % Comp calc [11]: 77.1% | % Comp obs [11]: 86.1% | % Comp calc [12]: 93.6% | % Comp obs [12]: 87.8% | % Comp calc [13]: 51% | % Comp obs [13]: 53% | % Comp calc [14]: 3.8% | % Comp obs [14]: 4.9% | % Comp calc [15]: 14% | % Comp obs [15]: 13.7% | % Comp calc [16]: 98% | % Comp obs [16]: 102% | % Comp calc [17]: 99% | % Comp obs [17]: 95% | % Comp calc [18]: 87.6% | % Comp obs [18]: 87.3% | % Comp calc [19]: 96% | % Comp obs [19]: 98% | % Comp calc [20]: 92% | % Comp obs [20]: 92% | % Comp calc [21]: 17% | % Comp obs [21]: 16%

B1: Full length His-tagged S. aureus SPase (protein)
chain: MKKELLEWIISIAVAFVILFIVGKFIVTSYTIKGESMDPTLKDGERVAVNIIGYKTGGLEKGNVVVFHANKNDDYVKRVIGVPGDKVEYKNDTLYVNGKKQDEPYLNYNLKHKQGDYITGTFQVKDLPNANPKSNVIPKGKYLVLGDNREVSKDSRAFGLIDEDQIVGKVSFRFWPFSEFKHNFNPENTKN
second order rate constant (Kcat/KM) of substrate cleavage [22]: 10^5 M^-1s^-1 | second order rate constant (Kcat/KM) of substrate cleavage [23]: 10^5 M^-1s^-1

Source: patent US10501493B2, “Broad spectrum antibiotics” (priority 2011, dated 2019)
